# Measurements: the DeepSol protein solubility set
# Experiment: soluble on expression in E. coli; label from the status in PepcDB or PDB records
row,Sequence,soluble on expression in E. coli
1,VRFVSELCALHGTDPVPMALIMEPVSKWSPSQVVDWMKGLDDCLQQYIKNFEREKISGDQLLRITHQELEDLGVSRIGHQELILEAVDLLCALNYGLETENLKTLSHKLNASAKNLQNFITGRRRSGHYDGRTSRKLPNDFLTSVVDLIGAAKSLLAWLDRSPFAAVTDYSVTRNNVIQLCLELTTIVQQDCTVYETENKILHVCKTLSGVCDHIISLSSDPLVSQSAHLEVIQLANIKPSEGLGMYIKSTYDGLHVITGTTENSPADRCKKIHAGDEVIQVNHQTVVGWQLKNLVNALREDPSGVILTLKKRPQSMLTSAPALLKNMRWKPLALQPLIPRSPTSSVATPSSTISTPTKRDSSALQDLYIPPPPAEPYIPRDEKGNLPCEDLRGHMVGKPVHKGSESPNSFLDQEYRKRFNIVEEDTVLYCYEYEKGRSSSQGRRESTPTYGKLRPISMPVEYNWVGDYEDPNKMKRDSRRENSLLRYMSNEKIAQEEYMFQRNSKKDTGKKSKKKGDKSNSPTHYSLLPSLQMDALRQDIMGTPVPETTLYHTFQQSSLQHKSKKKNKGPIAGKSKRRISCKDLGRGDCEGWLWKKKDAKSYFSQKWKKYWFVLKDASLYWYINEEDEKAEGFISLPEFKIDRASECRKKYAFKACHPKIKSFYFAAEHLDDMNRWLNRINMLTAGYAERERIKQEQDYWSESDKEEADTPSTPKQDSPPPPYDTYPRPPSMSCASPYVEAKHSRLSSTETSQSQSSHEEFRQEVTGSSAVSPIRKTASQRRSWQDLIETPLTSSGLHYLQTLPLEDSVFSDSAAISPEHRRQSTLPTQKCHLQDHYGPYPLAESERMQVLNGNGGKPRSFTLPRDSGFNHCCLMLQLVPVTHRMTCNPQRWRKRRRRRRRKGRQQGKT,soluble
2,VRLSNPDILLNIHVSHEEVTLSLDSSGDSLHKRGYRVAETTAPLNEVLAAGILLKAGWDGSTDLIDPMCGSGTFLIEAALIACNIAPGIYRRGFAFQRWADFDLDLYDELFHDDSAERVFDHIIYGSDILPQAVAAARSNVERAGLGRYISLSVLPMQQRPKPESKAMLVMNPPYGERIKVEDMQQLYTMIGERLKHNYAGCSAWILAFKPEHFNHIGLRQSHREKLMNGALECELRGYELFEGRR,not soluble
3,VRPLNCIVAVSQNMGIGKNGDLPWPPLRNEFKYFQRMTTTSSVEGKQNLVIMGRKTWFSIPEKNRPLKDRINIVLSRELKEPPRGAHFLAKSLDDALRLIEQPELASKVDMVWIVGGSSVYQEAMNQPGHLRLFVTRIMQEFESDTFFPEIDLGKYKLLPEYPGVLSEVQEEKGIKYKFEVYEKKD,soluble
4,VSAPDSPALAGMSIGAVLDLLRPDFPDVTISKIRFLEAEGLVTPRRASSGYRRFTAYDCARLRFILTAQRDHYLPLKVIRAQLDAQPDGELPPFGSPYVLPRLVPVAGDSAGGVGSDTASVSLTGIRLSREDLLERSEVADELLTALLKAGVITTGPGGFFDEHAVVILQCARALAEYGVEPRHLRAFRSAADRQSDLIAQIAGPLVKAGKAGARDRADDLAREVAALAITLHTSLIKSAVRDVLHR,soluble
5,VSDFKYGALLNITTLSNKVLSLGYEKPFIDSGQARTRLNGPLAEFFLYKTDGIFKTQEQIDNYVTPDGEPIMISGKRPQLGDVKYIDTDNNGQITADDRQFCGSPWAKMQMSLVLNAEWKDFDFSMMWNGQFGNKIYNVSKWQGRLFSDNSNYLRFKKGEEPYQVNQNSDTPRIIYGDQRNSWDADRFLENGSYFRLKNISIGYNLKKEWLKNLGIDKLRLYATGSNLLTFTGYSGLDPDFINTNIWNSGTDSFSYPNTRSVMFGLDLTF,not soluble
6,VTSGTALPSADDLLVLLAVGRTGRFNTAADDLGVNHTTISRRIASLEKSLGGRVLVKAAGGWELTDLGRQALTAAERVEAAVHGLVAEPGRADHLKGVVRVSATDGFSAYIAAPAGALIRSRHPEVSVEIVAITRRASQHRSGLDIEIVVGKPQVHRAEALWLADYTLGLYGAKSYLSAHGTPRQVGDLADHSLVYFIDSMLQVDELDLARRLTVSMRESVTSTNVFVHVEATRASAGIGLLPCFMADRHDDLVRVLPGQVEATLAYWLVARPESLRRPEVAAVVGAIRETVESQRDALAGQ,not soluble
7,VVDFGALPPEINSARMYAGPGSASLVAAAKMWDSVASDLFSAASAFQSVVWGLTTGSWIGSSAGLMVAAASPYVAWMSVTAGQAELTAAQVRVAAAAYETAYGLTVPPPVIAENRAELMILIATNLLGQNTPAIAVNEAEYGEMWAQDAAAMFGYAATAATATEALLPFEDAPLITNPGGLLEQAVAVEEAIDTAAANQLMNNVPQALQQLAQPTKSIWPFDQLSELWKAISPHLSPLSNIVSMLNNHVSMTNSGVSMASTLHSMLKGFAPAAAQAVETAAQNGVQAMSSLGSQLGSSLGSSGLGAGVAANLGRAASVGSLSVPQAWAAANQAVTPAARALPLTSLTSAAQTAPGHMLGGLPLGQLTNSGGGFGGVSNALRMPPRAYVMPRVPAAG,soluble
8,VVGNMTPDFLGSVATTLTWKDLSLNVGLDMRFGGLVASYCNLYGTQAGWTESSLQYRDPEHGGMTWTSQYADSKGIQYTDGMIPEGVFKEGTIATLVDGTKMDVSGLSYAQLVQEGKLEPTHAGSWYGNNYAWGAQTIDDIWVHKLSYIALRNITINYRLPNSISHKLGAKGLNLSFSARNLGYLYNSLPNNLNPESVRSNSASEFRIRGFEPYTASYIFTINANF,not soluble
9,VVTRQLGRAPRGVLAIAYRCPNGEPGVVKTAPRLPDGTPFPTLYYLTHPVLTAAASRLETTGLMREMNRRLGQDAELAAAYRRAHESYLSERDALEPLGTTVSAGGMPDRVKCLHVLIAHSLAKGPGLNPFGDEALALLAAEPRTAATLVAGQWR,soluble
10,VYWLNWTDRTRKFTIYNDIIERSLLTLKMMSFYNGAVLASLTTSLPEAVGEVRNWDYRFCWLRDASMSIETLFKIGHADATRKFMKFIQSTFVAEHDTYQIMYGIRGERKLTEVILDHLSGYKNSQPVRIGNDAYHQRQNDSFGYLMDLIYQYYRLMPGTLDEIEDMWEMVKSIMTTVMEDWRKPDKGIWEIRGEGQHFVSSKVMCWVALDRGARIARILNKYENSRRWEEEADAIKADVMRNGWKEEIQSFSQAYGNLDLDSSLLLMEPYGFIDADDIRYHKTVKAVKQSLLHKGLMYRYNTHDDFGCPSSAFTICTFWLIRALYVIGEKDEARCLFDEILQYSNHLGLFSEDIDFETKEQLGNFPQAYSHLALVNTAVLFAE,not soluble
11,WLEPYLAGVTSVKGLQSVSVLQALKHYLGWELSQQLDEWLPTHHLLPTGNHKKIRYQLGMEPTLSVRMQEVFGEQSSPRVAKGTRAVVMELLSPAQRPLQVTRDLASFWAGAYKEVQKEMKGRYPKHVWPDDPANHVATSKTKRQLNA,not soluble
12,WTGEDSAEPNSDSAEWIRDMYAKVTEIWQEVMQRRDDDGTLHAACQVQPSATLDAAQPRVTGVVLFRQLAPRAKLDAFFALEGFPTEPNSSSRAIHVHQFGDLSQGCESTGPHYNPLAVPHPQHPGDFGNFAVRDGSLWRYRAGLAASLAGPHSIVGRAVVVHAGEDDLGRGGNQASVENGNAGRRLACCVVGVCGPGLWERQAREHSERKKRRRESECKAA,soluble
13,YEVKVKLADIQADPNSPLYSAKSFDELGLAPELLKGIYAMKFQKPSKIQERALPLLLHNPPRNMIAQSQSGTGKTAAFSLTMLTRVNPEDASPQAICLAPSRELARQTLEVVQEMGKFTKITSQLIVPDSFEKNKQINAQVIVGTPGTVLDLMRRKLMQLQKIKIFVLDEADNMLDQQGLGDQCIRVKRFLPKDTQLVLFSATFADAVRQYAKKIVPNANTLELQT,soluble
14,YFKEKKIHPEAEMFDNRGFGVVAMMGLPLAGKDTYIKENFKNINVISLDDIREELNISSKRNSGKVAAIAISRAKQLLRRKESFIWNATNLRRENRQKLIRLCTAYGAKLKFIYLEVPYRELLSRNKMRSRYVPVEVINKMIRKMDMLEGEEIC,not soluble
15,YKEFKLKRVYYSGYIPINHEDHALPAVGSAPPLLRENRLYQSDWLMRFYGFAADEIVNPQHPNLDLDVDPKLGWALRHPEQFPVDINRADYRMILRVPGIGVRSAKKIMHARRFGALRIDQLKRMGVAYSRAQHFIYCID,not soluble
16,YLSKYRNETGRSPSFLVNIDSSLKSLAHVDVIYPVGDPIFIHIYERGKERRYKPIEPLLKDDEFEFMDAILDIIMSRASDYPPAENEEEQEKNIEDVYKKTVS,soluble
17,YSFIGNPVFKKPFELDEMREYYLNFFERRGHGRIERYPVVARWRTDIYLTIASIADFQPFVTSGVAPPPANPLTISQPCIRLDDLDSVGRTGRHLTLFEMMAHHAFNYPGKEIYWKNETVAYCTELLNELGVKKEDIVYKEEPWAGGGNAGPCLEAIVGGLEVATLVFMNLEEHPEGDIEIKGARYRKMDNYIVDTGYGLERFVWASKGTPTVYDAIFPEVVDTIIDNSNVSFNREDERVRRI,not soluble
